Source: patent US20250268938A1, “SMALL MOLECULE-REGULATED CELL SIGNALING EXPRESSION SYSTEM” (Outpace Bio, Inc., priority 2021, published 2025)

Tested on: Jurkat cells
Experiment: Kill switch percent killing in Jurkat cells (flow cytometry)
Type: cell-based
Conditions: for percent killing in the absence of a scaffolded NS3a: danoprevir or grazoprevir treatment, 500 nM; for percent killing, miniaturized DNCR2 designs fused to caspase-9 with homo-oligomerized NS3a scaffolds: co-expressed with CAR-NS3a, CAR-NS3a-NS3a or dimer-NS3a
Experimental: Kill switch-positive cells (le5) were incubated for 24-48 hours with inducer drug before staining and analysis for death. Conditions were normalized to contain about 50% transduction positive (+) cells by adding untransduced Jurkat or primary T cells in order to get accurate statistics on death.
Flow cytometry was performed on a Ze5 cytometer (Biorad). To determine expression of markers, between 1×10^5-2×10^5 total cells were transferred to a U-bottom 96 well culture dish (Corning). Cells were washed twice with Cell Staining Buffer (BioLegend), then stained with Zombie Violet (1:1000, BioLegend) and ROR1-FC for ROR1-specific CAR constructs (20 min at room temperature). Cells were washed twice in Cell Staining Buffer, then stained with Annexin V-PE (BD) in 1× Annexin V Binding Buffer (BD) for 15 min at room temperature. After staining, cells were washed once with Annexin V Binding Buffer, resuspended in AnneinV Binding Buffer and immediately analyzed.
Flow cytometry data was analyzed using FlowJo 10 (Tree Star). Percent killing was calculated by gating on live cells, then calculating 100*((percent GFP positive DMSO condition)−(percent GFP positive drug condition))/(percent GFP positive DMSO condition).
We first tested for drug-induced death of Jurkat cells by fusing NS3a and DNCR2 separately to the catalytic domain of caspase-9 (NCDC). The small molecule inducible homodimer FKBP-F36V (iCasp9), which is dimerized by AP1903 (rimiducid) and the inducible heterodimer FKBP/rapamycin/FRB dimer (rapaCasp9) were used as controls. Briefly, Jurkat cells expressing NCDC, iCasp9, or rapaCasp9 were exposed to danoprevir, rimiducid or rapamycin, respectively, for 24 hours and analyzed by flow cytometry with gating set to measure killing in the top about 10% of cells expressing the highest amount of the GFP kill switch transduction marker.
To evaluate the kill switch designs of FIG. 8A, constructs were expressed in Jurkat cells, treated with 500 nM danoprevir (DNCR2-casp-9) or 500 nM grazoprevir (GNCR1-casp-9) and cell death measured by percent killing as described herein above.
The miniaturized versions of DNCR2, D1 and D9, were fused to caspase-9 and co-expressed in Jurkat cells with homo-oligomerized NS3a scaffolds. We also evaluated a CAR construct that included an additional copy of NS3a (CAR-2×NS3a). The original DNCR2-casp-9 was used as a control. Jurkat cells expressing different DNCR2 variants fused to caspase-9 along with CAR-NS3a, CAR-NS3a-NS3a, or dimer-NS3a were treated with 500 nM danoprevir and cell death was measured by percent killing as described herein above.
We explored the ability of other human killing domains to induce cell death in Jurkat and primary human T cells. We fused FKBP-F36V to a panel of killing domains that included caspase-9 D330A, caspase-9, caspase-1, caspase-4, and the necroptosis-inducing protein RIPK3. Briefly, Jurkat and primary human CD4+/CD8+ T cells expressing FKBP(F36V)-fused killing domains were treated with 10 nM rimiducid and cell death was measured by percent killing as described herein above.

B1: GNCR1-casp-9: caspase-9 fused to GNCR1 (protein)
chain: MDIEKLCKKAEEEAKEAQEKADELRQRHPDSQAAEDAEDLANLAVAAVLTACLLAQEHPNADIAKLCIKAASEAAEAASKAAELAQRHPDSQAARDAIKLASQAARAVILAIMLAAENPNADIAKLCIKAASEAAEAASKAAELAQRHPDSQAARDAIKLASQAAEAVERAIWLAAENPNADIAKKCIKAASEAAEEASKAAEEAQRHPDSQKARDEIKEASQKAEEVKERCKSGSASGSGGFGDVGALESLRGNADLAYILSMEPCGHCLIINNVNFCRESGLRTRTGSNIDCEKLRRRFSSLHFMVEVKGDLTAKKMVLALLELAQQDHGALDCCVVVILSHGCQASHLQFPGAVYGTDGCPVSVEKIVNIFNGTSCPSLGGKPKLFFIQACGGEQKDHGFEVASTSPEDESPGSNPEPDATPFQEGLRTFDQLDAISSLPTPSDIFVSYSTFPGFVSWRDPKSGSWYVETLDDIFEQWAHSEDLQSLLLRVANAVSVKGIYKQMPGCFNFLRKKLFFKTS
percent killing in the absence of a scaffolded NS3a: did not induce Jurkat death

B2: DNCR2-casp-9: caspase-9 fused to DNCR2 (protein)
chain: MSSDEEEARELIERAKEAAERAQEAAERTGDPRVRELARELKRLAQEAAEEVKRDPSSSDVNEALKLIVEAIEAAVDALEAAERTGDPEVRELARELVRLAVEAAEEVQRNPSSSDVNEALHSIVYAIEAAIFALEAAERTGDPEVRELARELVRLAVEAAEEVQRNPSSRNVEHALMRIVLAIYLAEENLREAEESGDPEKREKARERVREAVERAEEVQRDPSGWLNHSGSASGSGGFGDVGALESLRGNADLAYILSMEPCGHCLIINNVNFCRESGLRTRTGSNIDCEKLRRRFSSLHFMVEVKGDLTAKKMVLALLELAQQDHGALDCCVVVILSHGCQASHLQFPGAVYGTDGCPVSVEKIVNIFNGTSCPSLGGKPKLFFIQACGGEQKDHGFEVASTSPEDESPGSNPEPDATPFQEGLRTFDQLAAISSLPTPSDIFVSYSTFPGFVSWRDPKSGSWYVETLDDIFEQWAHSEDLQSLLLRVANAVSVKGIYKQMPGCFNFLRKKLFFKTSGSGATNFSLLKQAGDVEENPG
percent killing in the absence of a scaffolded NS3a: did not induce Jurkat death

B3: dimer-NS3a: NS3a fused to C-terminus of designed homo-oligomeric helical bundle, dimer (SEQ ID NO: 42) (protein)
chain: MTRTEIIRELERSLREQEELAKRLKELLRELERLQREGSSDEDVRELLREIKELVEEIEKLAREQKYLVEELKRQDGSASGSASMKKKGSVVIVGRINLSGDTAYSQQTRGLEGCQETSQTGRDKNQVEGEVQVVSTATQSFLATSINGVLWTVYHGAGTRTIASPKGPVTQMYTNVDKDLVGWQAPQGSRSLTPCTCGSSDLYLVTRHADVIPVRRRGDSRGSLLSPRPISYLKGSAGGPLLCPAGHAVGIFRAAVSTRGVAKAVDFIPVESLETTMRSP
percent killing, NS3a scaffold with DNCR2-casp-9 (500 nM danoprevir): comparable killing to iCasp9

B4: hexamer-NS3a: NS3a fused to C-terminus of designed homo-oligomeric helical bundle, hexamer (SEQ ID NO: 43) (protein)
chain: MTEDEIRKLRKLLEEAEKKLKKLEDKTRRSEEISKTDDDPKAQSLQLIAESLMLIAESLLIIAISLLLSSRNGSASGSASMKKKGSVVIVGRINLSGDTAYSQQTRGLEGCQETSQTGRDKNQVEGEVQVVSTATQSFLATSINGVLWTVYHGAGTRTIASPKGPVTQMYTNVDKDLVGWQAPQGSRSLTPCTCGSSDLYLVTRHADVIPVRRRGDSRGSLLSPRPISYLKGSAGGPLLCPAGHAVGIFRAAVSTRGVAKAVDFIPVESLETTMRSP
percent killing, NS3a scaffold with GNCR1-casp-9 (500 nM grazoprevir): modest death

B5: CAR-2×NS3a: CAR construct that included an additional copy of NS3a (protein)
chain: CPPCPMFWVLVVVGGVLACYSLLVTVAFIIFWVKRGRKKLLYIFKQPFMRPVQTTQEEDGCSCRFPEEEEGGCELASGSASGSASMKKKGSVVIVGRINLSGDTAYSQQTRGLEGCQETSQTGRDKNQVEGEVQVVSTATQSFLATSINGVLWTVYHGAGTRTIASPKGPVTQMYTNVDKDLVGWQAPQGSRSLTPCTCGSSDLYLVTRHADVIPVRRRGDSRGSLLSPRPISYLKGSAGGPLLCPAGHAVGIFRAAVSTRGVAKAVDFIPVESLETTMRSPGSSGSSGSSGGKKKGSVVIVGRINLSGDTAYSQQTRGLEGCQETSQTGRDKNQVEGEVQVVSTATQSFLATSINGVLWTVYHGAGTRTIASPKGPVTQMYTNVDKDLVGWQAPQGSRSLTPCTCGSSDLYLVTRHADVIPVRRRGDSRGSLLSPRPISYLKGSAGGPLLCPAGHAVGIFRAAVSTRGVAKAVDFIPVESLETTMRSP
percent killing, miniaturized DNCR2 designs fused to caspase-9 with homo-oligomerized NS3a scaffolds (500 nM danoprevir): increased killing further

B6: D1: minimized version of DNCR2 fused to caspase-9 (protein)
chain: MDDNEAEKLIREAEEAAKDAEEAAERTGDPEVRELARELVRLAKEAAEEVQRNPSSSDVNEALHSIVYAIEAAIFALEAAERTGDPEVRELARELVRLAVEAAEEVQRNPSSRNVEHALMRIVLAIYLAEENLRESGSASGSGGFGDVGALESLRGNADLAYILSMEPCGHCLIINNVNFCRESGLRTRTGSNIDCEKLRRRFSSLHFMVEVKGDLTAKKMVLALLELAQQDHGALDCCVVVILSHGCQASHLQFPGAVYGTDGCPVSVEKIVNIFNGTSCPSLGGKPKLFFIQACGGEQKDHGFEVASTSPEDESPGSNPEPDATPFQEGLRTFDQLAAISSLPTPSDIFVSYSTFPGFVSWRDPKSGSWYVETLDDIFEQWAHSEDLQSLLLRVANAVSVKGIYKQMPGCFNFLRKKLFFKTS
percent killing, miniaturized DNCR2 designs fused to caspase-9 with homo-oligomerized NS3a scaffolds (500 nM danoprevir): comparable Jurkat death as the original DNCR2-casp-9

B7: D9: minimized version of DNCR2 fused to caspase-9 (protein)
chain: MELEEVLKDLEEALERLRNEELRRLIEEIAELLRRRDDHSIIYMIEALIFVIEAVERTGDERIEKLLEELIKRIRNGDDDSAIMRIVLAVYLIEENLRESGSASGSGGFGDVGALESLRGNADLAYILSMEPCGHCLIINNVNFCRESGLRTRTGSNIDCEKLRRRFSSLHFMVEVKGDLTAKKMVLALLELAQQDHGALDCCVVVILSHGCQASHLQFPGAVYGTDGCPVSVEKIVNIFNGTSCPSLGGKPKLFFIQACGGEQKDHGFEVASTSPEDESPGSNPEPDATPFQEGLRTFDQLAAISSLPTPSDIFVSYSTFPGFVSWRDPKSGSWYVETLDDIFEQWAHSEDLQSLLLRVANAVSVKGIYKQMPGCFNFLRKKLFFKTS
percent killing, miniaturized DNCR2 designs fused to caspase-9 with homo-oligomerized NS3a scaffolds (500 nM danoprevir): comparable Jurkat death as the original DNCR2-casp-9
